Data reported in the supplement of paper PMC10567573.

B1: C22orf15 (parent)
chain: ITQSWQVSVRVQPRGRAHLLPNPY
B2: TMEM40 (parent)
chain: YGETDFHKQDGKAGLFSQEQYERN

Variants of: B1
Test: protein stability index of a GFP-peptide fusion (GPS, HEK-293T) (PSI 1-6); higher = more stable
Conditions: c terminus: a fixed tail appended
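Note: lentivirally expressed fusions sorted by FACS into six bins by GFP to DsRed ratio, PSI derived from sequencing read proportions per bin multiplied by bin number.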

**Q.** For ITQSWQVSVRVQPRGRAHLLPNEY [P23E], which protein stability index is on record?
**A.** 1.51

**Q.** For ITQSWQVSVRVQPRGRAHLLPNAY [P23A], which protein stability index is on record?
**A.** 1.34

**Q.** With ITQSWQVSVRVQPRGRAHLLPNIY [P23I] as the variant, how does the protein stability index read?
**A.** 2.08

**Q.** For ITQSWQVSVRVQPRGRAHLLPDPY [N22D], which protein stability index is on record?
**A.** 1.62

**Q.** With ITQSWQVSVRVQPRGRAHLLPIPY [N22I] as the variant, how does the protein stability index read?
**A.** 2.39

**Q.** With ITQSWQVSVRVQPRGRAHLLPEPY [N22E] as the variant, how does the protein stability index read?
**A.** 1.59

**Q.** With ITQSWQVSVRVQPRGRAHLLPQPY [N22Q] as the variant, how does the protein stability index read?
**A.** 2.43

**Q.** With ITQSWQVSVRVQPRGRAHLLPMPY [N22M] as the variant, how does the protein stability index read?
**A.** 1.88

**Q.** With ITQSWQVSVRVQPRGRAHLLPHPY [N22H] as the variant, how does the protein stability index read?
**A.** 1.75

**Q.** For ITQSWQVSVRVQPRGRAHLLPTPY [N22T], which protein stability index is on record?
**A.** 1.89

**Q.** For ITQSWQVSVRVQPRGRAHLLPAPY [N22A], which protein stability index is on record?
**A.** 2.85

**Q.** Which protein stability index does the source give for ITQSWQVSVRVQPRGRAHLLPLPY [N22L] here?
**A.** 3.15

**Q.** For ITQSWQVSVRVQPRGRAHLLPSPY [N22S], which protein stability index is on record?
**A.** 4.3

**Q.** With ITQSWQVSVRVQPRGRAHLLPKPY [N22K] as the variant, how does the protein stability index read?
**A.** 2.17

**Q.** Which protein stability index does the source give for ITQSWQVSVRVQPRGRAHLLPFPY [N22F] here?
**A.** 1.49

**Q.** With ITQSWQVSVRVQPRGRAHLLPPPY [N22P] as the variant, how does the protein stability index read?
**A.** 1.17

**Q.** Which protein stability index does the source give for ITQSWQVSVRVQPRGRAHLLPRPY [N22R] here?
**A.** 2.33

**Q.** Which protein stability index does the source give for ITQSWQVSVRVQPRGRAHLLPYPY [N22Y] here?
**A.** 2.09

**Q.** With ITQSWQVSVRVQPRGRAHLLPVPY [N22V] as the variant, how does the protein stability index read?
**A.** 1.75

Variants of: B2
Test: as above
Conditions: c terminus: a fixed tail appended

**Q.** With CGETDFHKQDGKAGLFSQEQYERN [Y1C] as the variant, how does the protein stability index read?
**A.** 4.55

**Q.** For AGETDFHKQDGKAGLFSQEQYERN [Y1A], which protein stability index is on record?
**A.** 4.89

**Q.** With IGETDFHKQDGKAGLFSQEQYERN [Y1I] as the variant, how does the protein stability index read?
**A.** 4.58

**Q.** For TGETDFHKQDGKAGLFSQEQYERN [Y1T], which protein stability index is on record?
**A.** 5.14

**Q.** With NGETDFHKQDGKAGLFSQEQYERN [Y1N] as the variant, how does the protein stability index read?
**A.** 4.77

**Q.** For PGETDFHKQDGKAGLFSQEQYERN [Y1P], which protein stability index is on record?
**A.** 5.22

**Q.** Which protein stability index does the source give for QGETDFHKQDGKAGLFSQEQYERN [Y1Q] here?
**A.** 5.3

**Q.** Which protein stability index does the source give for WGETDFHKQDGKAGLFSQEQYERN [Y1W] here?
**A.** 4.37

**Q.** Which protein stability index does the source give for DGETDFHKQDGKAGLFSQEQYERN [Y1D] here?
**A.** 4.92

**Q.** For MGETDFHKQDGKAGLFSQEQYERN [Y1M], which protein stability index is on record?
**A.** 4.38

**Q.** For HGETDFHKQDGKAGLFSQEQYERN [Y1H], which protein stability index is on record?
**A.** 4.38

**Q.** Which protein stability index does the source give for EGETDFHKQDGKAGLFSQEQYERN [Y1E] here?
**A.** 5.36

**Q.** Which protein stability index does the source give for SGETDFHKQDGKAGLFSQEQYERN [Y1S] here?
**A.** 5.24

**Q.** For KGETDFHKQDGKAGLFSQEQYERN [Y1K], which protein stability index is on record?
**A.** 5.01

**Q.** For FGETDFHKQDGKAGLFSQEQYERN [Y1F], which protein stability index is on record?
**A.** 4.88

**Q.** For RGETDFHKQDGKAGLFSQEQYERN [Y1R], which protein stability index is on record?
**A.** 5.01

**Q.** For GGETDFHKQDGKAGLFSQEQYERN [Y1G], which protein stability index is on record?
**A.** 4.5

**Q.** For LGETDFHKQDGKAGLFSQEQYERN [Y1L], which protein stability index is on record?
**A.** 5.45

**Q.** With YGETSFHKQDGKAGLFSQEQYERN [D5S] as the variant, how does the protein stability index read?
**A.** 2.88

**Q.** With YGETFFHKQDGKAGLFSQEQYERN [D5F] as the variant, how does the protein stability index read?
**A.** 1.49

**Q.** For YGETIFHKQDGKAGLFSQEQYERN [D5I], which protein stability index is on record?
**A.** 3.15

**Q.** With YGETNFHKQDGKAGLFSQEQYERN [D5N] as the variant, how does the protein stability index read?
**A.** 3.24

**Q.** Which protein stability index does the source give for YGETAFHKQDGKAGLFSQEQYERN [D5A] here?
**A.** 2.92

**Q.** For YGETYFHKQDGKAGLFSQEQYERN [D5Y], which protein stability index is on record?
**A.** 2.04

**Q.** For YGETEFHKQDGKAGLFSQEQYERN [D5E], which protein stability index is on record?
**A.** 4.37

**Q.** For YGETQFHKQDGKAGLFSQEQYERN [D5Q], which protein stability index is on record?
**A.** 3.81

**Q.** With YGETPFHKQDGKAGLFSQEQYERN [D5P] as the variant, how does the protein stability index read?
**A.** 4.14

**Q.** With YGETMFHKQDGKAGLFSQEQYERN [D5M] as the variant, how does the protein stability index read?
**A.** 2.58
